# Variants at the floor of the assay were thinned out.
# B1: TPR 5TU (parent)
# chain: GGAUCUUCUCGAUCUAACAAAAAAGACAAAUCUGCCACAAAGCUUGAGAGCAUCUUCGGAUGCAGAGGCGGCAGCCUUCGGUGGCGCGAUAGCGCCAACGUUCUCAACUAUGACACGCAAAACGCGUGCUCCGUUGAAUGGAGUUUAUCAUG
# Variants of: B1
# Test: polymerase ribozyme fitness, log enrichment relative to wild type (log ratio); higher = more active; in vitro selection for triplet polymerase activity
# In short: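 After PCR construction and transcription, each subunit's mutant library from a heterodimeric triplet polymerase ribozyme was annealed with a biotinylated primer, the partner subunit and triplets. Incubation was frozen, at −7 °C, and extended constructs were gel-excised, bound to streptavidin beads and amplified by RT-PCR, in one selection round done in triplicate. Fitness is the logarithm of a genotype's enrichment divided by that of the wild type, from inverse-variance-weighted replicate averages of Illumina-sequenced inputs and outputs. The base of the logarithm is 2, and genotypes needed ≥10 input reads and ≥1 read per output.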
row,Variant,polymerase ribozyme fitness (log ratio)
1,C63G C85U U145A,0.338
2,G68A C93G,≤ -4.2
3,G68A G83U G88A A107U C114U,≤ -4.2
4,A66G G88U A119G U139G,≤ -4.2
5,C72A A147C,≤ -4.2
6,C69G G71U G140A,≤ -4.2
7,G70A G86A U90G C93G A110U C114U U134A,≤ -4.2
8,C63A C85G U134A,-4.18
9,C72U C75U C87A U90A C95G U102G A150G,≤ -4.2
10,A64G C87A A115G C125A U148C C149G,≤ -4.2
11,C63U C72U C105A,-3.97
12,G68A U90G A150U,≤ -4.2
13,G71A A91G C93U,≤ -4.2
14,G68U C79G G84A C105U A147U,≤ -4.2
15,A73G C125U,-0.349
16,G70A C75A C85G G140C,≤ -4.2
17,G71U C85U,-1.67
18,C69A U90C,≤ -4.2
19,A73G C87G G88C G124C U127G G143C U144A,≤ -4.2
20,C69A U77C A98U A122U U146C U151A,≤ -4.2
21,G70C A98U,-2.78
22,C69A U78G U90G G128A C131U,≤ -4.2
23,A64U C93G C114G,≤ -4.2
24,A66C C96A,≤ -4.2

row,Variant,polymerase ribozyme fitness (log ratio)
1,C69A U134G,-3.35
2,G65A U139C G141C,-3.69
3,C72U U101C,0.482
4,G74A G86C G100C C103G C105A U151A,≤ -4.2
5,C72U C87A G117C G143U,≤ -4.2
6,G71C G86U A91C G133A,≤ -4.2
7,C72U A89C C95U C105U,-1.12
8,G70A C87U,-3.05
9,G74C U130A,≤ -4.2
10,G70C G94A,-3.61
11,G70A U82A C87G A89U C103A C105A,≤ -4.2
12,C69U C93A C103U C116A U148G,≤ -4.2
13,A73U A115G,-2.08
14,C69U A122U,-1.27
15,A73U C75A A98U C114U C125A U135A,≤ -4.2
16,C75G C93A C108G C132A G140A G143A,-4.12
17,G68A A98U,-3.61
18,A73G C87U G92U A122U C131A,-4.1
19,G68A C116A C123U,≤ -4.2
20,C63U C99G,-1.04
21,G68U C76U,≤ -4.2
22,G74A U90C G94A A98U,≤ -4.2
23,C69U A115U C123U,-1.62
24,A73G U144G,1.28

row,Variant,polymerase ribozyme fitness (log ratio)
1,A73G U144C,0.137
2,C69U C87A U90A G117U,≤ -4.2
3,G68A C96A C99U A110G U145C,≤ -4.2
4,A66C A73C G140U A147C,≤ -4.2
5,C63G C75U C93U A120U,-0.964
6,C72A C93A,≤ -4.2
7,G70C G86C,≤ -4.2
8,C75G C85A C103U A107G A122C,≤ -4.2
9,A64C C85G G140A,≤ -4.2
10,G68C A97U U102A,≤ -4.2
11,A66G U104A U134G G136C,≤ -4.2
12,G68A C95U,-3.77
13,G68A C79U A91G,-4.14
14,A64G C85U,-3.21
15,G71U G80C C93U A97U C132A,≤ -4.2
16,C69U C85U U148C,-2.71
17,G74A G92C C149A,≤ -4.2
18,C72A C103G C118G U148G,≤ -4.2
19,A73G G81A G83A C96A A119U G124C,≤ -4.2
20,G65A C96U,-1.03
21,A64C G88C U90G U102G A119U A120U C149G,≤ -4.2
22,A73G U130C,0.842
23,C75G C76G G92C,≤ -4.2
24,G68A C105U,-3.51

row,Variant,polymerase ribozyme fitness (log ratio)
1,G65A C69A G84A,-1.8
2,A73U G141A,-2.24
3,G67U C87U U104G C132G U144C U148G,≤ -4.2
4,C75A C79G C93A,-4.11
5,A64U C79U C87A A137G,≤ -4.2
6,C69A C85U,-1.65
7,C63U G83C C85G C105A A110C,≤ -4.2
8,G68A G88A C116A A119U,-3.78
9,C63U C93A,-3.69
10,C63G G92A,-2.18
11,A73G G94A A97U A120U,-1.74
12,G74U C87A C116A U151G,≤ -4.2
13,A66G G92C,-3.77
14,C72G A73C U102G C103G,≤ -4.2
15,A73G G86U C105U A106U U144C,-3.89
16,C63U C79U G88C U90G C95A C99U A107U,≤ -4.2
17,C75U A110C U146G,≤ -4.2
18,C75G C93A,-4.14
19,A66C C96A A115C C123U G136C,≤ -4.2
20,C72U U78A G84A,≤ -4.2
21,A64U A73G A89C G92A A150U,≤ -4.2
22,C69U U78G C96G U134A U135C,≤ -4.2
23,C75G G92A C105G C114G U146C,≤ -4.2
24,A64G C87A C105A U144G,≤ -4.2

row,Variant,polymerase ribozyme fitness (log ratio)
1,G70A G94U C96G A142C U148A,≤ -4.2
2,G74A C96G,-2.97
3,A64G G86A,-4.08
4,G70C C87A G140C,≤ -4.2
5,G74A A91C A147U U148C,≤ -4.2
6,A64C A66C C125U,≤ -4.2
7,G74A C103G,≤ -4.2
8,C69U A97G G141A,-0.875
9,A64U C93U A138G,≤ -4.2
10,G74C C79G U82A C93U C108U,≤ -4.2
11,G62U C76U C85G,-2.1
12,A73C U127A U144G,≤ -4.2
13,G68A A147U,-4.05
14,C63A U102C A142G,-2.31
15,G71C G83A G117C C129A,≤ -4.2
16,G70A C87A C99A,≤ -4.2
17,G70A U144C,-3.66
18,A73G C149A,≤ -4.2
19,G71C C87G G128A,≤ -4.2
20,G71C C87U,-3.34
21,C75U C79G,-4.07
22,C63A U102C,-0.926
23,A73G G86A A150G,≤ -4.2
24,G62A G68C C87A,≤ -4.2

row,Variant,polymerase ribozyme fitness (log ratio)
1,A73G C85U,-0.115
2,C75A G86A U104G A106G,≤ -4.2
3,C63U C85A,-3.57
4,G62C C85G,-3.23
5,G70A,-2.75
6,G70C,-2.92
7,G70U,-1.81
8,C69G G143C,-4.1
9,A73G G92C C96A,-2.51
10,A64C G68C C87A A91G C99A A121C A122C G143U,≤ -4.2
11,A73G C93G,-2.73
12,A73G C93U,-1.28
13,G67A C87U C103U C114G C116U A119G,≤ -4.2
14,C75G G81U C95A G152U,≤ -4.2
15,A73C C96A,-3.14
16,G65A G124U,-1.24
17,A73G A120G,0.0734
18,G68C C69A G92U G136A,-4.11
19,C63A C85U,-0.129
20,C69U G126C,-0.197
21,G62U G92C C96A A98U,-2.71
22,G71C G94A,-3.93
23,C69A A89U,-1.41
24,G62A G92A,-3.43

row,Variant,polymerase ribozyme fitness (log ratio)
1,C63U G141C,-0.69
2,C69G G74U A89U A98U,-2.01
3,C69A U148A,-4.08
4,C69U G86A,-1.13
5,C72U U146G,-0.793
6,A73G G88A G124C,≤ -4.2
7,A73G G83C C95G A120C A122G,≤ -4.2
8,A73G C85A U109G,-2.78
9,G74C C93U G143U,≤ -4.2
10,A64G C103G U148G,≤ -4.2
11,C63U U134A,-2.6
12,G62C A97G,-0.203
13,G71A G140U U148C,≤ -4.2
14,C63G G68U G71A U78G C85G G100A G141U,≤ -4.2
15,A73G A122C,0.468
16,A73G G81A C85U,0.246
17,C72G C96U,-4.02
18,C72U U77C C118G,≤ -4.2
19,A64G G86U U130C,≤ -4.2
20,G70A G81U,-3.25
21,C69G G94A U104G,-1.19
22,A66G C76A,-3.94
23,C69A U102C,≤ -4.2

# — the RNAGym collection of RNA variant scans (doi:10.1073/pnas.2313332121)
